Assay results published in US20250376528A1 (SYNTHEKINE, published 2025).

T1: extracellular domain of human IL10Rα (amino acids 22-235, UniProtKB Q13651) (human, UniProt Q13651 22-235)
T1 construct: range 22-235; Antigen used for camel immunization and for phage selection; also called hIL-10Rαecd; hIL10-R1
T1 sequence (looked up): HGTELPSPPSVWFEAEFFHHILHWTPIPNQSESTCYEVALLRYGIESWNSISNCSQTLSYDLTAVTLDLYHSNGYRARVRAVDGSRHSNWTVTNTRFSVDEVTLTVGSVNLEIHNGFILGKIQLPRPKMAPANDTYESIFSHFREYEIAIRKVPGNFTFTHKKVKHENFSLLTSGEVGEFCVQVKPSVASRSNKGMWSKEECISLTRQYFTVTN

T2: extracellular domain of human IL10Rβ (amino acids 20-220, UniProtKB Q08334) (human, UniProt Q08334 20-220)
T2 construct: range 20-220; Antigen used for camel immunization and for phage selection; also called hIL-10Rβecd; hIL10-R2
T2 sequence (looked up): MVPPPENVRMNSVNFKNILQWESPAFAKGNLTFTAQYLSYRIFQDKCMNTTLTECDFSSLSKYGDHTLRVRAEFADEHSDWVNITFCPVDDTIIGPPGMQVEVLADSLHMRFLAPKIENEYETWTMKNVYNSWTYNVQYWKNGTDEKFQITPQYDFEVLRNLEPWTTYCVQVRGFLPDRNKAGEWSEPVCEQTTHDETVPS

B1: anti-hIL-10Rαecd VHH SEQ ID NO 48 (VHH)
VHH: QVQLQESGGGSVQAGGSLRLSCTVSGYTYSSNCMGWFRQAPGKEREGVATIYTGGGNTYYADSVKGRFTISQDNAKNTVYLQMNNLKPEDTAMYYCAAEPLSRVYGGSCPTPTFDYWGQGTQVTVSS
notes: Camel VHH selected by phage display; also called Anti-IL10Rα
B2: anti-hIL-10Rαecd VHH SEQ ID NO 47 (VHH)
VHH: QVQLQESGGGSVQAGGSLRLSCAVSGYAYSTYCMGWFRQAPGKEREGVAAIDSGGSTSYADSVKGRFTISKDNAKNTLYLRMNSLKPEDTAMYYCAAVPPPPDGGSCLFLGPEIKVSKADFRYWGQGTQVTVSS
notes: as for B1
B3: anti-hIL-10Rαecd VHH SEQ ID NO 45 (VHH)
VHH: QVQLQESGGGSVQAGGSLRLSCAASRFTYSSYCMGWFRQAPGKEREGVASIDSDGSTSYTDSVKGRFTISKDNAKNTLYLQMNSLKPEDTAMYYCALDLMSTVVPGFCGFLLSAGMDYWGKGTQVTVSS
notes: as for B1
B4: anti-hIL-10Rαecd VHH SEQ ID NO 46 (VHH)
VHH: QVQLQESGGGSVQAGGSLRLSCAASGYTYSMYCMGWFRQAPGKEREGVAQINSDGSTSYADSVKGRFTISKDNAKNTLYLQMNSLKPEDTAMYYCAADSRVYGGSWYERLCGPYTYEYNYWGQGTQVTVSS
notes: as for B1
B5: anti-hIL-10Rαecd VHH SEQ ID NO 49 (VHH)
VHH: QVQLQESGGGSVQAGGSLRLSCGASGYTYSSYCMGWFRQVPGKEREGVAVIDSDGSTSYADSVKGRFTISKDNGKNTLYLQMNSLKPEDTAMYYCAADLGHYRPPCGVLYLGMDYWGKGTQVTVSS
notes: as for B1
B6: anti-hIL-10Rβecd VHH SEQ ID NO 52 (VHH)
VHH: QVQLQESGGGSVQAGGSLRLSCAASGYTYSSYCMGWFRQAPGKEREGVAHIDSDGSTSYADSVKGRFTISKDNAKNTLYLQMNSLKPEDTAMYYCAADPIPGPGYCDGGPNKYWGQGTQVTVSS
notes: Camel VHH selected by phage display; also called Anti-IL10Rβ
B7: anti-hIL-10Rβecd VHH SEQ ID NO 56 (VHH)
VHH: QVQLQESGGGSVQAGGSLRLSCAASGYSYSSYCMGWFRQAPGKEREGVATIDSDGMTRYADSVKGRFTISKDNAKNTLYLQMNSLKPEDTAMYYCAAPLYDCDSGAVGRNPPYWGQGTQVTVSS
notes: as for B6
B8: anti-hIL-10Rβecd VHH SEQ ID NO 57 (VHH)
VHH: QVQLQESGGGSVQTGGSLRLSCAASGYTYLRGCMGWFRQAPGKEREGVAVMDVVGDRRSYIDSVKGRFTISRDNAANSVYLQMDNLKPEDTAMYYCTAGPNCVGWRSGLDYWGQGTQVTVSS
notes: as for B6
B9: anti-hIL-10Rαecd VHH SEQ ID NO 50 (VHH)
VHH: QVQLQESGGGSVQAGGSLRLSCAASGYSNCSYDMTWYRQAPGKEREFVSAIHSDGSTRYADSVKGRFFISQDNAKNTVYLQMNSLKPEDTAMYYCKTDPLHCRAHGGSWYSVRANYWGQGTQVTVSS
notes: as for B1
B10: anti-hIL-10Rαecd VHH SEQ ID NO 44 (VHH)
VHH: QVQLQESGGGSVQAGGSLRLSCAASRYLYSIDYMAWFRQSPGKEREPVAVIYTASGATFYPDSVKGRFTISQDNAKMTVYLQMNSLKSEDTAMYYCAAVRKTDSYLFDAQSFTYWGQGTQVTVSS
notes: as for B1

What was measured:
[1] = biological target: T1, extracellular domain of human IL10Rα …; assay: phage display biopanning on the antigen, positive colonies by PE-ELISA
Experimental: (§1) Library biopanning was conducted to screen candidates against the antigens after library construction. Phage display technology was applied in this procedure. Positive colonies were identified by PE-ELISA.
(§2) Camels were immunized with the extracellular domains of the human IL10Rα (amino acids 22-235, UniProtKB Q13651, hIL-10Rαecd) and IL10Rβ (amino acids 20-220, UniProtKB Q08334, hIL-10Rβecd) weekly for seven weeks and PBMCs harvested on day 52. Phage display libraries were constructed and biopanning conducted as described in Example 1 above. 50 VHH sequences were obtained after selection on hIL10-R1 and 47 VHH sequences were obtained after selection on hIL10-R2. Sequences were clonotyped using germline assignment and CDR3 sequence similarity.

[2] = biological target: T2, extracellular domain of human IL10Rβ …; assay: as above
Experimental: as §1, §2

| Binder | binding result [1] | binding result [2] |
| --- | --- | --- |
| B1 | binds | – |
| B2 | binds | – |
| B3 | binds | – |
| B4 | binds | – |
| B5 | binds | – |
| B6 | – | binds |
| B7 | – | binds |
| B8 | – | binds |
| B9 | binds | – |
| B10 | binds | – |
